The text below walks through data of article PMC4388618.

Substrate in the series: [H][C@@]12COP(=O)(O)O[C@@]1([H])[C@@H](O)[C@H](n1cnc3c(=O)[nH]c(N)nc31)O2
Briefly: cyclic nucleotide phosphodiesterase assay kit. The class given is biochemical, Drosophila melanogaster.

B1: Prune (Pn) (Drosophila melanogaster) (protein)
chain: MCFLRFLAQARGTLGRHLAEASPVAWAAAPDVSGRKLHLVMGNESCDLDSAVSAVTLAFVYAQRHREHDYVPILNIPRRDYPLKTEVGHLFVKCGIAEPVLLFRDDIPREVVQDVNVILVDHHVSPLAPNVTEILDHRPLEDSSPSFKQLPTLCQLDIDASVGSCATLVAQRYLAEDQPRSTSVAQLLHATIVLDTINFAPAAKRYGPKDEAMVQKLESELNRKDAQRSSLFDELVAARADISKLTLTEVLRKDMKVLQTDRQVVPLAGMPILVRDFVEKSGAEKAVREFGVESNLLVILGMYVSPADGQVQRDLALISLSGQGQFVQRVQQALMESNDPKLELRPHEVDTRFMGGCFLRQHNVQATRKHILPIVKRALLEWEADHACDCDEVYFFKEKPQLGLS
One may read the Km as the concentration of substrate that gives half-maximal velocity. One may read the kcat as the maximal rate divided by the concentration of active sites. Turning to B1, the Km is 17.97 ± 10.78 µM and the kcat turned out to be 0.00123 ± 0.00014 s⁻¹.
